Experimental data published in patent US20260062488A1 (AbbVie / Abbott, published 2026).
Residue numbers refer to the chain shown, from its start. One block for each binder: values may come before it.

Columns and labels:
human α4β7 integrin [1] = target: T1, human α4β7 integrin (human, UniProt P13612 34-1032; P26010 20-798); test: blockade of HuT78 cell adhesion to plate-bound MAdCAM-1, representative experiment; the two IC50 lines under the plot bear no name: the lower one is given to Ab-m1, whose curve lies left of Ab-Vedo's (midpoint near log -2.1 ug/ml)
T1 construct: also called hα4β7; a4b7

human α4β7 integrin [2] = target: T1, human α4β7 integrin; test: FACS binding, human CD4+CD45RO+ T cells, summary table
human α4β7 integrin [3] = target: T1, human α4β7 integrin; test: FACS, primary human CD4+ memory T cells
cynomolgus α4β7 integrin [4] = target: T2, cynomolgus α4β7 integrin (cynomolgus monkey); test: blockade of CHOK1-cα4β7 cell adhesion to MAdCAM-1, representative experiment; the two IC50 lines under the plot bear no name: the lower one is given to Ab-m1, whose curve lies clearly left of Ab-Vedo's (midpoint near log -1.6 ug/ml)
T2 construct: whole, on cells; On CHOK1-cα4β7 cells or cynomolgus blood lymphocytes; also called cα4β7; cyno α4β7

cynomolgus α4β7 integrin [5] = target: T2, cynomolgus α4β7 integrin; test: MadCAM-1/cα4β7 potency (adhesion blockade), summary table
human α4β7 integrin [6] = target: T1, human α4β7 integrin; test: FACS titration on BaF3-hα4β7
human α4β7 integrin [7] = target: T1, human α4β7 integrin; test: inhibition of MAdCAM-1 binding to human CD4+CD45RO+ T cells
human α4β7 integrin [8] = target: T1, human α4β7 integrin; test: blockade of HuT78 cell adhesion to MAdCAM-1
cynomolgus α4β7 integrin [9] = target: T2, cynomolgus α4β7 integrin; test: ratio of cyno to human adhesion-blockade potency, summary table
human α4β7 integrin [10] = target: T1, human α4β7 integrin; test: row IC50 (pM) HuT78 of the binning table (assay not explained, presumably adhesion to MAdCAM-1)
human α4β7 integrin [11] = target: T1, human α4β7 integrin; test: blockade of HuT78 cell adhesion to MAdCAM-1; remark: listed apart in the source
cynomolgus α4β7 integrin [12] = target: T2, cynomolgus α4β7 integrin; test: blockade of CHOK1-cα4β7 cell adhesion to MAdCAM-1
human α4β7 integrin [13] = target: T1, human α4β7 integrin; test: MadCAM-1/HuT78 potency (adhesion blockade), summary table
cynomolgus α4β7 integrin [14] = target: T2, cynomolgus α4β7 integrin; test: blockade of CHOK1-cα4β7 cell adhesion to MAdCAM-1; remark: listed apart in the source
human α4β7 integrin [15] = target: T1, human α4β7 integrin; test: FACS, primary human CD4+ memory T cells (CD4+CD45RO+), one whole blood
human α4β7 integrin [16] = target: T1, human α4β7 integrin; test: blockade of MAdCAM-1 mediated HuT78 cell adhesion
cynomolgus α4β7 integrin [17] = target: T2, cynomolgus α4β7 integrin; test: blockade of CHOK1/cα4β7 adhesion to MAdCAM-1
human α4β7 integrin [18] = target: T1, human α4β7 integrin; test: FACS on α4β7-expressing HuT78 cells

IC50 (human α4β7 integrin [1]): 0.0511 nM
EC50 (human α4β7 integrin [2]): 0.0098 nM
EC50 (human α4β7 integrin [3]): 0.0098 nM
IC50 (cynomolgus α4β7 integrin [4]): 0.165 nM
IC50 (cynomolgus α4β7 integrin [5]): 0.201 nM
EC50 (human α4β7 integrin [6]): 0.474 nM
IC50 (human α4β7 integrin [7]): 0.0637 nM
IC50 (human α4β7 integrin [8]): 0.0228 nM
Cyno x-reactivity (cynomolgus α4β7 integrin [9]): 4 fold
IC50 (human α4β7 integrin [10]): 0.0447 nM
IC50 (human α4β7 integrin [11]): 0.0555 nM
IC50 (cynomolgus α4β7 integrin [12]): 0.201 nM
IC50 (human α4β7 integrin [13]): 0.0555 nM
IC50 (cynomolgus α4β7 integrin [14]): 0.0658 nM
B1: Ab-m1 (antibody, V domains shown)
VH: EVQLQQSVAELVRPGASVKLSCTTSGFNIKNTYMHWVKQRPKQGLEWIGRIDPANGHTEYAPKFQGKATITADTSSNTAYLHLSSLTSDDTAIYYCYYVDSWGQGTTLTVSS
VL: DILMTQSPSSMSVSLGDTVSITCHASQGISDNIGWLQQRPGKSFKGLIYHGTNLEDGVPSRFSGSGSGADYSLTISSLESEDFADYYCVQYAQFPWTFGGGTTLEIK
notes: Hybridoma antibody, mouse IgG1/kappa; also called murine antibody Ab-m1; Mouse anti-human α4β7 [mu IgG1/k

IC50 (human α4β7 integrin [8]): 0.0137 nM
EC50 (human α4β7 integrin [15]): 0.0039 nM
IC50 (cynomolgus α4β7 integrin [14]): 0.0864 nM
B2: Ab-c1 (antibody, human IgG1, V domains shown)
VH: B1 VH
VL: B1 VL
notes: Ab-m1's variable regions with human IgG1/k constant regions; also called murine-human chimera Ab-c1; Chimeric anti-human α4β7 [hu IgG1/k

IC50 (human α4β7 integrin [16]): 0.0091 nM
B3: Ab-h1.5 (antibody, human IgG1, V domains shown)
VH: EVQLVQSGAEVKKPGSSVKVSCTTSGFNIKNTYMHWVKQRPGQGLEWIGRIDPANGHTEYAPKFQGKATITADESTNTAYLELSSLRSEDTAVYYCYYVDSWGQGTTVTVSS
VL: DIQMTQSPSSLSASVGDRVTITCHASQGISDNIGWLQQKPGKSFKGLIYHGTNLEDGVPSRFSGSGSGADYTLTISSLQPEDFATYYCVQYAQFPWTFGGGTKVEIKR

IC50 (cynomolgus α4β7 integrin [17]): 0.0365 nM
IC50 (human α4β7 integrin [16]): 0.0114 nM
B4: Ab-h1.9 (antibody, human IgG1, V domains shown)
VH: B3 VH with T23K, T24A, K38R, R40A, K67R, A68V, L81M
VL: DIQMTQSPSSLSASVGDRVTITCHASQGISDNIGWLQQKPGKSFKLLIYHGTNLEDGVPSRFSGSGSGTDYTLTISSLQPEDFATYYCVQYAQFPWTFGGGTKVEIK
notes: Humanized, human IgG1 and kappa constant regions; also called Ab-H1.9 (parental)

binding result (human α4β7 integrin [18]): binds
B5: Ab-h1.9a (antibody, V domains shown)
VH: B3 VH with T23K, T24A, K38R, R40A, G56K, Q65L, K67R, A68V, L81M, D100A
VL: B4 VL with G28E
notes: Liability-engineered clone converted to IgG format [hu IgG1/k]; constant regions of the tested mAb not specified

IC50 (human α4β7 integrin [16]): 0.0081 nM
B6: Ab-h1.6 (antibody, human IgG1, V domains shown)
VH: B3 VH
VL: B4 VL

binding result (human α4β7 integrin [18]): binds
B7: Ab-h1.9b (antibody, V domains shown)
VH: B3 VH with T23K, T24A, K38R, R40A, N55R, Q65S, K67R, A68V, L81M, S101Q
VL: B4 VL with G28D
notes: as for B5

binding result (human α4β7 integrin [18]): binds
B8: Ab-h1.9e (antibody, V domains shown)
VH: B3 VH with T23K, T24A, K38R, R40A, N55G, Q65I, K67R, A68V, L81M, D100A
VL: B4 VL with G28E
notes: as for B5

IC50 (human α4β7 integrin [16]): 0.0138 nM
B9: Ab-h1.8 (antibody, human IgG1, V domains shown)
VH: B3 VH with T23K, T24A, K38R, R40A, K67R, A68V, L81M
VL: B3 VL
